Source: US12281340B2, “Method of producing N-acyl-amino group-containing compound” (AJINOMOTO CO., INC., priority 2018, dated 2025)

Experiments:
Assay type in all cases: biochemical
[1] = Synthesis of N-acylamino acids from various fatty acids using purified acylamino acid synthetase, UPLC-MS detection; set-up: key: +: Detected; −: Not detected
Method in brief: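 Purified enzyme (200 μg/mL) with 5 mM amino acid, 5 mM sodium fatty acid (3 mM palmitate or stearate, plus 10% methanol), 10 mM ATP, 10 mM MgCl2, 1 mM DTT in 50 mM Tris-HCl pH 8.0, shaken 24 h at 25 °C. Amino acid varied by enzyme; product mass detected by UPLC-MS (ESI-negative).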

[2] = Synthesis of N-caprinoyl-amino acid derivative, N-caprinoyl-D-amino acid and N-caprinoyl-peptide using purified acylamino acid synthetase, UPLC-MS detection; set-up: key: +: Detected; −: Not detected; settings: +ATP
Method in brief: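 Purified enzyme (50 μg/mL) was incubated with 5 mM sodium caprate, 5 mM amino acid derivative, D-amino acid or peptide, 10 mM ATP, 10 mM MgCl2 and 1 mM DTT in 50 mM Tris-HCl, pH 8.0, for 24 h at 25 °C. After acidic methanol stop, UPLC-MS looked for the mass of the N-caprinoyl product.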

[3] = Analysis of ATP dependency of acylamino acid synthetase; settings: for signal of molecular weight corresponding to N-caprinoyl amino acid: in the absence of ATP; for N-caprinoylamino acid detected: in the presence of ATP (10 mM), UV 210 nm
Method: 0.25 mL of a reaction solution containing 50 mM Tris-HCl, 5 mM amino acid, 5 mM sodium caprate, 10 mM or 0 mM ATP, 10 mM MgCl2, 1 mM DTT, 50 μg of the purified enzyme, pH 8.0 was incubated at 25° C. for 24 hours. As the amino acid, L-Asp and Gly were used in AtGH3-6 and CfHP, respectively. After completion of the reaction, 0.8 mL of the reaction stop solution (1% (v/v) phosphoric acid, 75% (v/v) methanol) was added to 0.2 mL of the reaction solution, and the mixture was filtrated through the filter followed by being subjected to the UPLC-MS analysis to quantify a produced N-caprinoylamino acid by detection at UV 210 nm. The condition for the UPLC-MS analysis is as described in Example 2. As a result of the analysis, 3.8 mM and […] of the N-caprinoylamino acids were detected in AtGH3-6 and CfHP, respectively in the presence of ATP. However, in the absence of ATP, no signal of the molecular weight corresponding to the N-caprinoylamino acid was detected when any of AtGH3-6 and CfHP was used.

[4] = substrates Carnosine and sodium caprate
[5] = substrates D-Ala and sodium caprate
[6] = substrates D-Asp and sodium caprate
[7] = substrates D-Cys and sodium caprate
[8] = substrates D-Glu and sodium caprate
[9] = substrates D-Ile and sodium caprate
[10] = substrates D-Lys and sodium caprate
[11] = substrates L-Asp-L-Phe and sodium caprate
[12] = substrates L-Gly-L-Gly and sodium caprate
[13] = substrates Sarcosine and sodium caprate
[14] = substrates Taurine and sodium caprate

Row | Molecule | signal of molecular weight corresponding to N-caprinoyl compound [2, 4] | signal of molecular weight corresponding to N-caprinoyl compound [2, 5] | signal of molecular weight corresponding to N-caprinoyl compound [2, 6] | signal of molecular weight corresponding to N-caprinoyl compound [2, 7] | signal of molecular weight corresponding to N-caprinoyl compound [2, 8] | signal of molecular weight corresponding to N-caprinoyl compound [2, 9] | signal of molecular weight corresponding to N-caprinoyl compound [2, 10] | signal of molecular weight corresponding to N-caprinoyl compound [2, 11] | signal of molecular weight corresponding to N-caprinoyl compound [2, 12] | signal of molecular weight corresponding to N-caprinoyl compound [2, 13] | signal of molecular weight corresponding to N-caprinoyl compound [2, 14] | other results
1 | CfHP: hypothetical protein from Cystobacter fuscus (GH3 protein), His-tagged (protein, listed as Cystobacter fuscus, His-tag, hypothetical protein from Cystobacter fuscus (GH3 protein), His-tagged) MQAAGRRDKQRFIEQTRHVARVNVDTLRAILQHNRDTDFGRRHGFASLRTVEDFQRALPVSTYEPFRPYMERIARGEQNVLTADRVEYLGITSGTTGQRKLLPVSRPHLENMRRTMMIGRAVVTEKVPAARRPSRGMILMNAVLRERSEGGLLTGALTAISTHSMGRAASFAFTSPPEAFRLRKHADALYLHLLFGLRERELGTLMAPFASGLLDMVHLLERRGADLVDDIARGVLRPELDLEPEQRRLLQSRLLPDPERAREVSQALEQGPHGLLRRLWPRLAYVSSITGASFSLYTRQLTPYLEGVPLSAASYVSTEGILGVPLELEQAVYCLMVGMAFFEFIPERELDAESPTTLLPEQLVEGEAYEVVLTTQAGLYRYRLGDVVRIVGRYHEAPLMEFLYRRGALLNLMGEKTSEHAARLALEQALATEGLLPADYSVVEETETLPGRYALFVELQEGARPQGAPEQLSRALEEALCRTNPFYEVIRRSERLGAAQLHRVEPGTFQALRDVLVQRGASPTQVKVPRVVRDAELQGLLRQRRVTG | + | + | + | + | + | + | + | + | + | + | + | signal of molecular weight corresponding to N-acylamino acid ([1]; substrates Gly and Capric acid): +; signal of molecular weight corresponding to N-acylamino acid ([1]; substrates Gly and Caproic acid): +; signal of molecular weight corresponding to N-acylamino acid ([1]; substrates Gly and Caprylic acid): +; signal of molecular weight corresponding to N-acylamino acid ([1]; substrates Gly and Lauric acid): +; signal of molecular weight corresponding to N-acylamino acid ([1]; substrates Gly and Linoleic acid): −; signal of molecular weight corresponding to N-acylamino acid ([1]; substrates Gly and Palmitic acid): +; signal of molecular weight corresponding to N-acylamino acid ([1]; substrates Gly and myristic acid): +; signal of molecular weight corresponding to N-caprinoyl amino acid ([3]; Gly and sodium caprate): no signal; N-caprinoylamino acid detected ([3]; Gly and sodium caprate): 5.2 mM
2 | AtGH3-6: indole-3-acetic acid-amido synthetase GH3.6 from Arabidopsis thaliana, expressed in E. coli with N-terminal His-tag (protein, listed as Arabidopsis thaliana, N-terminal His-tag, indole-3-acetic acid-amido synthetase GH3.6 from Arabidopsis thaliana, expressed in E. coli with N-terminal His-tag) MPEAPKIAALEVSDESLAEKNKNKLQFIEDVTTNADDVQRRVLEEILSRNADVEYLKRHGLEGRTDRETFKHIMPVVTYEDIQPEINRIANGDKSQVLCSNPISEFLTSSGTSGGERKLMPTIEEELDRRSLLYSLLMPVMDQFVPGLDKGKGMYFLFIKSESKTPGGLPARPVLTSYYKSSHFKNRPYDPYTNYTSPNQTILCSDSYQSMYSQMLCGLCQHKEVLRVGAVFASGFIRAIKFLEKHWPELARDIRTGTLSSEITDSSVREAVGEILKPDPKLADFVESECRKTSWQGIITRLWPNTKYVDVIVTGTMSQYIPTLDYYSNGLPLVCTMYASSECYFGVNLRPLCKPSEVSYTLIPNMAYFEFLPVHRNSGVTSSISLPKALTEKEQQELVDLVDVKLGQEYELVVTTYAGLYRYRVGDVLSVAGFKNNAPQFSFICRKNVVLSIDSDKTDEVELQNAVKNAVTHLVPFDASLSEYTSYADTSSIPGHYVLFWELCLNGNTPIPPSVFEDCCLTIEESLNSVYRQGRVSDKSIGPLEIKMVESGTFDKLMDYAISLGASINQYKTPRCVKFAPIIELLNSRVVDSYFSPKCPKWSPGHKQWGSN | + | + | + | + | + | + | + | + | + | + | + | signal of molecular weight corresponding to N-acylamino acid ([1]; substrates L-Asp and Capric acid): +; signal of molecular weight corresponding to N-acylamino acid ([1]; substrates L-Asp and Caproic acid): +; signal of molecular weight corresponding to N-acylamino acid ([1]; substrates L-Asp and Caprylic acid): +; signal of molecular weight corresponding to N-acylamino acid ([1]; substrates L-Asp and Lauric acid): +; signal of molecular weight corresponding to N-acylamino acid ([1]; substrates L-Asp and Linoleic acid): −; signal of molecular weight corresponding to N-acylamino acid ([1]; substrates L-Asp and Palmitic acid): +; signal of molecular weight corresponding to N-acylamino acid ([1]; substrates L-Asp and myristic acid): +; signal of molecular weight corresponding to N-caprinoyl amino acid ([3]; L-Asp and sodium caprate): no signal; N-caprinoylamino acid detected ([3]; L-Asp and sodium caprate): 3.8 mM
